{
  "source": "patent US20210163945",
  "about": "“APTAMERS FOR TARGETING COAGULATION FACTOR XIII AND USES THEREOF” (Chang Gung University, published 2021)",
  "key": {"[1]": {"biological_target": "T1, Coagulation factor XIII (FXIII) (UniProt P00488;P05160 P00488:2-732,P05160:21-661)", "T1 sequence 1": "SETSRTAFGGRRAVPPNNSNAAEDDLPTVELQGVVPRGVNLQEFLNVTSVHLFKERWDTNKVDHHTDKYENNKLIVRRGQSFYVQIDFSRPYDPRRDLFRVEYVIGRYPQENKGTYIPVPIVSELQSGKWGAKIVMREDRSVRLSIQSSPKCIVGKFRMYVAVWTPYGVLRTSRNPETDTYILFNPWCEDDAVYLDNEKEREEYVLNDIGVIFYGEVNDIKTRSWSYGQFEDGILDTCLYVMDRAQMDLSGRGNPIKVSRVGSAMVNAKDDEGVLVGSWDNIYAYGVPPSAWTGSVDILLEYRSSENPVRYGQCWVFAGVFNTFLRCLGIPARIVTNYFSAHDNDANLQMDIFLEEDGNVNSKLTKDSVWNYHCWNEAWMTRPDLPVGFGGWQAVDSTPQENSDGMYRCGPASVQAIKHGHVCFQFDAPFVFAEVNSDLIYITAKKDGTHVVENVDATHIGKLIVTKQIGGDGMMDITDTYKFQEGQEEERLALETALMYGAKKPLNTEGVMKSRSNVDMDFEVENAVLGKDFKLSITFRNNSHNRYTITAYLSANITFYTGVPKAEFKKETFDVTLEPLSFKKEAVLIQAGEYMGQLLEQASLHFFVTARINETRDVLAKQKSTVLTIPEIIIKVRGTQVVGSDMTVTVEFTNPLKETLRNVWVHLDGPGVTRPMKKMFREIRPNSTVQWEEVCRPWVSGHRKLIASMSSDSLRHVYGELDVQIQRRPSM", "T1 sequence 2": "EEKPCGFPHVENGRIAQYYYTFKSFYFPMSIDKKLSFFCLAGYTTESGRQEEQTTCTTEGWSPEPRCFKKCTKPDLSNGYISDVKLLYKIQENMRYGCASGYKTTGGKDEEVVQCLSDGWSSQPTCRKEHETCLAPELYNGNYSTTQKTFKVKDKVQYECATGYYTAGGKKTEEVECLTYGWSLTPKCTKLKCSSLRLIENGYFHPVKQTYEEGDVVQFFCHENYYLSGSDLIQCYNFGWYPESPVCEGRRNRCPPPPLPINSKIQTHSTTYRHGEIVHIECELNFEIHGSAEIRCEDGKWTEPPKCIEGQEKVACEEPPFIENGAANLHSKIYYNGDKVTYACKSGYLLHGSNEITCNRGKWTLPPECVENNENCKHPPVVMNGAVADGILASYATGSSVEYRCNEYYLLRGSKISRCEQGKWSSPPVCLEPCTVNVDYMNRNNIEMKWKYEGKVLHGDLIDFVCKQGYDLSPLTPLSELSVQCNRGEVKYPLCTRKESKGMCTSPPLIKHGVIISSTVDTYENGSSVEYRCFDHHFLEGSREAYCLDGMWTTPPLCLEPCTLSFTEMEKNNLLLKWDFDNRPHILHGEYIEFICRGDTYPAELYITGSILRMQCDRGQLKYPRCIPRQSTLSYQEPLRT", "experiment": "dot blot, binds under native and denatured conditions; PBS/Tween 20, BSA block", "conditions": "chain copies: 2; label: FAM or biotin", "experimental": "Purified FXIII was blotted on a nitrocellulose (NC) membrane, and air-dried for 1 hr. Then a mixture of BSA, PBS, and Polyoxyethylene(20)sorbitan monolaurate (TWEEN™ 20) was added to the NC membrane and incubated for 1 hr, and following biotin-conjugated aptamers were added to the NC membrane and incubated for another 1 hr. The NC membrane was washed thrice using a washing buffer of PBS and Tween 20, and horseradish peroxidase (HRP)-conjugated streptavidin was added to the NC membrane and incubated for 1 hr. For coloration, a substrate of HRP was added to the NC membrane after washing, and the images of the NC membrane were acquired by a X-ray film processor."}, "[2]": {"biological_target": "Bovine serum albumin (BSA) (Bos taurus, UniProt P02769 P02769:25-607)", "sequence (P02769 25-607, one chain of several)": "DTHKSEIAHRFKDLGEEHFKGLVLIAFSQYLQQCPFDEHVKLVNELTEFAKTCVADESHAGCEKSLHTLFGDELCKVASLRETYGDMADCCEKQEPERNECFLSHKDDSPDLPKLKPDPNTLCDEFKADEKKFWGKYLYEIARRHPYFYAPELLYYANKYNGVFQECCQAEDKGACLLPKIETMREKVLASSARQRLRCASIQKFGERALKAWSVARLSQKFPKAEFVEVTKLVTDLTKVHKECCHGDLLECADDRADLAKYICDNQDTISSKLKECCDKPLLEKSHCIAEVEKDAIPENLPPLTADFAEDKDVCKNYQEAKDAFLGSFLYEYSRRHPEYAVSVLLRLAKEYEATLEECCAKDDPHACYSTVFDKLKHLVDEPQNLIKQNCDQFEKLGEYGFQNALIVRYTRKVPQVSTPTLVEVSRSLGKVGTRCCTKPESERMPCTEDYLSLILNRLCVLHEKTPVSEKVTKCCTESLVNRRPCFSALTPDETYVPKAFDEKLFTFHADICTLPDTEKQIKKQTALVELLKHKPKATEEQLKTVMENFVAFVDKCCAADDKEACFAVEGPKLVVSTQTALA", "experiment": "dot blot, no binding under native or denatured condition", "conditions": "label: FAM or biotin"}},
  "data": [
    {"binder": "CGCAGCATCATTCGGGTCGGGAAGGGGTGTACGGGGCTGCG (ssDNA)", "note": "[FAT2]", "values": [
      {"measurement": "binding result", "setting": "[1]", "value": "binds"},
      {"measurement": "binding result", "setting": "[2]", "value": "no binding"}
    ]}
  ]
}
